Data taken from US20260275317A1, “CHIMERIC ENDOLYSINS WITH ACTIVITY AGAINST STREPTOCOCCI AND STAPHYLOCOCCI” (UNIVERSITEIT GENT, priority 2023, published 2026).

Legend:
[1] = tested on: intracellular S. uberis GCC ST-5 in MAC-T and PS cells; assay: Intracellular killing assay in bovine mammary epithelial cell lines; format: cell-based, Streptococcus uberis; settings: 2.5 μM, 1 h
Method: Cells were seeded in a 24-well plate at 50.000 cells/well with the addition of 25 μg/mL calf skin collagen type I (dissolved in 0.1 M acetic acid) (Sigma-Aldrich, USA) and grown to 100% confluency. Next, medium was removed and cells were washed 3× with dPBS to remove residual P/S. An overnight bacterial culture was washed with dPBS, dissolved in an equal volume of prewarmed cell culture media without the addition of P/S and 0.5 mL thereof was incubated with the cells in every well during 3 h at 37° C. to allow intracellular invasion. Afterwards, this suspension was removed, serially diluted and plated as previously described to determine the amount of extracellular bacteria. Cells were again washed 3× with dPBS and 0.5 mL of prewarmed cell culture media was added with the addition of 200 μg/ml gentamycin (Sigma-Aldrich, USA) and incubated during 3 h at 37° C. to kill remaining extracellular and adhered bacteria. Next, this suspension was likewise removed and plated to check if killing of the extracellular and adhered bacteria was successful. Cells were again 3× washed with dPBS and 2.5 µM of prewarmed NC5 in cell culture media without P/S (buffer exchange performed at 4-8° C. by means of a Pierce™ Protein Concentrator PES 10 kDa MWCO) was added during 1 h to eradicate the intracellular bacteria. […]

[2] = tested on: stationary phase S. uberis; assay: Turbidity reduction assay (TRA), S. uberis; format: cell-based, Streptococcus uberis
Method: Concerning the time killing assay, an overnight bacterial culture was diluted 1:10 for S. uberis, S. agalactiae-& dysgalactiae or 1:100 for S. aureus in PBS or UHT-pasteurized whole cow's milk. A volume of 10 μL thereof was combined with an equal amount of chimeric endolysin in PBS (or only PBS as negative control) in triplicate and incubated in a covered 96-well microtiter plate at 37° C. for 2 h. The dose was low (i.e. 0.25 μM), but this was chosen to differentiate between less and better performing variants, consequently allowing a ranking. Finally, these fractions were serially diluted 1:10 in PBS. 5 μL of each fraction was spotted on TSA or BHI-agar and incubated overnight at 37° C. The following day, colony forming units (CFU) were counted and converted to CFU/mL to calculate logarithmic reductions in comparison with the negative control. The relative scores were calculated by dividing the observed logarithmic reduction for each endolysin by the maximal reduction observed for that specific condition and strain. Next, this value was divided by the number of conditions and strains tested (i.e., 8=4 bacterial strains×2 conditions (PBS/UHT-milk)). As such, the best performing candidate in each individual assay received a score of 0.125 (=(1/1)/8). […] Turbidity reduction assays were performed by combining 100 μL of overnight grown bacterial cells with an equal volume of purified enzyme at the desired concentration. Bacterial cells were washed with PBS and resuspended in a 1:1 ratio with enzyme to an OD600 of approximately 1.0. Next, the OD600 was measured using a Tecan infinite 200 PRO plate reader (Tecan, Switzerland) every 15 seconds at 37° C., shaking the 96-well plate between each measurement.
Time killing and turbidity reduction assays were performed as previously described in 1.3.1.

MAC-T cells = format: cell-based, bovine; settings: 2.5 μM
Method: MAC-T cells were seeded in a 6-well plate at 300.000 cells/well and grown to 100% confluency. Next, cell culture medium was replaced by prewarmed NC5 in DMEM (buffer exchange performed at 4-8° C. by means of a Pierce™ Protein Concentrator PES 10 kDa MWCO) and allowed to incubate during 1 h at 37° C. and 5.0% CO2. DMEM alone served as the negative control. Following incubation, the supernatant was aspirated and cells were washed 5× with prewarmed dPBS. Cells were then harvested, pelleted and washed as previously described, followed by lysis in ice-cold 0.1% triton X-100 (Sigma-Aldrich, USA) in dPBS. The cell lysates were denaturized and subjected to SDS-PAGE before blotting to a nitrocellulose membrane (Novolab, Belgium). The membrane was thereafter incubated during 1 h in dPBSM5 as blocking buffer. Subsequently, the primary antibody being mouse monoclonal IgG anti-HIS5 (Sigma-Aldrich, USA) was added to the blocking buffer at 1:2000 and allowed to incubate under the same conditions for another hour. The nitrocellulose membrane was then washed 3× with dPBST and incubated during 30 min with the secondary antibody being HRP conjugated goat monoclonal anti-mouse IgG (ImTec Diagnostics, Belgium) diluted 1:1000 in dPBST. […]

B1: NC5: chimeric endolysin SEQ ID NO: 17; HIV-1 TAT + PlySs2 CHAP + Ply1081 CW_7 + PlySs9 amidase_3 (protein)
chain: MYGRKKRRQRRRGATTVNEALNNVRAQVGSGVSVGNGECYALASWYERMISPDATVGLGAGVGWVSGAIGDTISAKNIGSSYNWQANGWTVSTSGPFKAGQIVTLGATPGNPYGHVVIVEAVDGDRLTILEQNYGGKRYPVRNYYSAASYRQQVVHYITPPGTVAQSAPNLAGAGIDQLVQETLAGKYGNGEQRKAALGSQYQAVMAVINGKATAPKKTVDQLAQEVIQGKHGNGEDRKKSLGPDYDAVQKRVTEILKGSPSGNIPKTPSDAPKSEVVNSSTEPKTEETGANGKATDTKITKGSGKHLVICGHGQGRTGYDPGAVNAKLGITEAGKVRELSKLMSKYSGQQIDFITEQNVYDYRSITSIGKGYDSITELHFNAFNGSAKGTEVLIQSSLEADKEDMAILSLLSRYFQNRGIKKVDWLYNANQAASRGYTYRLVEIAFIDNEQDMAIFENKKEDIAKGLVSAITGVEVKTIVPSPPSSTVGSSGTPSKSIYLVGDSLRVLPHATHYQTGQKIANWVKGRTYKILQVKNVHQSNSKRAYLLDGIKSWVLEQDVEGTTKGHSKYHHHHHH
Δ Log10 reduction of intracellular S. uberis ([1]; infected MAC-T): 1.62±0.05 Log10
Δ Log10 reduction of intracellular S. uberis ([1]; infected PS, remaining bacteria at or below detection limit 200 CFU/mL): at least 2.12±0.08 Log10
lysis in comparative TRA versus NC3 and NC8 ([2]; 0.5 μM, S. uberis 0140J): lysed the bacterial cells faster and resulted in a higher reduction of the OD600
lysis speed (ΔOD600/min)/μM ([2]; Clinical S. uberis 1 (Unknown ST and GCC), 0.3 μM): 0.06 (ΔOD600/min)/μM
ΔOD600 ([2]; Clinical S. uberis 1 (Unknown ST and GCC), 1 h, 0.3 μM): 0.42
lysis speed (ΔOD600/min)/μM ([2]; Clinical S. uberis 2 (Unknown ST, GCC 5), 0.3 μM): 0.11 (ΔOD600/min)/μM
ΔOD600 ([2]; Clinical S. uberis 2 (Unknown ST, GCC 5), 1 h, 0.3 μM): 0.38
lysis speed (ΔOD600/min)/μM ([2]; Clinical S. uberis 3 (Unknown ST, GCC 5), 0.3 μM): 0.44 (ΔOD600/min)/μM
ΔOD600 ([2]; Clinical S. uberis 3 (Unknown ST, GCC 5), 1 h, 0.3 μM): 0.62
lysis speed (ΔOD600/min)/μM ([2]; Clinical S. uberis 4 (ST 815, GCC 143), 0.3 μM): 0.05 (ΔOD600/min)/μM
ΔOD600 ([2]; Clinical S. uberis 4 (ST 815, GCC 143), 1 h, 0.3 μM): 0.63
lysis speed (ΔOD600/min)/μM ([2]; Clinical S. uberis 5 (ST 944, GCC 5), 0.3 μM): 0.21 (ΔOD600/min)/μM
ΔOD600 ([2]; Clinical S. uberis 5 (ST 944, GCC 5), 1 h, 0.3 μM): 0.59
ΔOD600 ([2]; S. uberis 0140J, 0.3 μM): 0.57±0.00
lysis speed (ΔOD600/min)/μM, NC5 pairwise versus NC2 ([2]; S. uberis (sub)clinical isolates, 0.3 μM): significantly (p <0.01) faster
lysis speed (ΔOD600/min)/μM ([2]; Subclinical S. uberis 1 (ST 808, GCC 143), 0.3 μM): 0.43 (ΔOD600/min)/μM
ΔOD600 ([2]; Subclinical S. uberis 1 (ST 808, GCC 143), 1 h, 0.3 μM): 0.66
lysis speed (ΔOD600/min)/μM ([2]; Subclinical S. uberis 2 (Unknown ST and GCC), 0.3 μM): 0.11 (ΔOD600/min)/μM
ΔOD600 ([2]; Subclinical S. uberis 2 (Unknown ST and GCC), 1 h, 0.3 μM): 0.65
lysis speed (ΔOD600/min)/μM ([2]; Subclinical S. uberis 3 (Unknown ST, GCC 5), 0.3 μM): 0.39 (ΔOD600/min)/μM
ΔOD600 ([2]; Subclinical S. uberis 3 (Unknown ST, GCC 5), 1 h, 0.3 μM): 0.53
lysis speed (ΔOD600/min)/μM ([2]; Subclinical S. uberis 4 (Unknown ST and GCC), 0.3 μM): 0.28 (ΔOD600/min)/μM
ΔOD600 ([2]; Subclinical S. uberis 4 (Unknown ST and GCC), 1 h, 0.3 μM): 0.42
stability after incubation with MAC-T cells (SDS-PAGE of supernatant) (MAC-T cells): neither disintegrated nor precipitated after incubation with MAC-T cells
